# Test results taken from the DeepSol protein solubility set.
# Assay: soluble on expression in E. coli; label from the status in PepcDB or PDB records
row,Sequence,soluble on expression in E. coli
1,MGSDKIHHHHHHMYYRKRFCVGRNNERRMKAMARDTGLDHLGAMRAFVRVVEMGSFSAVAKEMHVSTSTVARKITAIEEALGVALLHRSTHSVTLTEAGHIYLERAVTLIADLDDTLRVVAELNAQPSGPLKLTAPVAFGRRHLAPLIAPFLARYPTIQLDVRLTDNHNDLVAGGYDLDIHEGENYLDNLVVHRLSRNDSILCATPGYLDRCGRPATPDDLLHHNCLRYVHPEGDPRWELVRGDARHSVLPAGNLVTDHSELLLEATCAGLGIAEFEIWLVRDLLASGRLEAVLPRYRLHNKLTGEHIYIAYLANRRSSAKLRVLKDFLADQLAHIGELSEVELMKIRDAGA,not soluble
2,MGSDKIHHHHHHSDDDDEKMVNPVPQTTFTGENGLQLTYNGAPMPGKKVTFTPDATNAQKATLRLEGEFDLNGILGKAKSAAAREDVSMPTAPGVLPGSPVVTLPVDLTINGDQCSFAGTSETDYCTFSYKGEVSAGAMELALSEVKLKNAKLAGMTWKLKPYNQEVEEQDPVRLVWESEKGIPLFGSFEMPVESVLKIALRMPLIAVGAENKVSATDMLGTVLKDVTFMEDGNIVATYKDAANGGTEWTKSPVNLAQYVVENDNQIKVFLNPAAIIAAVNNAGRAIDVQTVIQQAIQILYPMLVNGVPVAFEQTEDALSVYLNTELLLPLLKTLVVPLLSDEEVVAMLVELMKKDPDFGEMAGLAEPMLKAFPEIIESTTKVEIGLNFVK,not soluble
3,MGSDKIHHHHHHSQTRYFADKKVSKSKNIVAADKVTDKEKETETWTSIPQRAVAYQELTTYEDSNLTKSVGKIPAKTQLDIPEIVGKSFKLKTGKYISTDKKAVISDLTISRESINTTIYTDKSVNVFYNPVTTYDNQIMTNLSGTHQLSADKMAKTNWGTYYEVSLDNGQKGWVSENDISLENPKIKQVQALLNQKYNDKKYSIYVKELDDKFTAGVNQEQKMYSASLSKIPILYWTQKRLNEGLASLDDKLLYTPAINTFYGSYKPEGTGNLPKTADNKYYSLQDVINRTAKLSDNVGSNMLAYYETQEFNPNYQKEINRIAGQEWNPKERNASAQMVGRMLEALYNEGGASFNALFDTSFDDVKIRAGVPKNISVAHKIGGADTDNHDAAIVFASKPYLLVIETDGATDDEIKAISQDVYGVMK,not soluble
4,MGSDKIHHHHHHVFKYMKKLLIVTTVPETLATILQSQPTFLNEEYEVFLASSTGIQQVADIENVRCFTINMYRGYSPFKDLFSIFKMFYLLLRIKPHIIHSYTPKAGLVCAIAAYFARVPHRIHTFTGLLFPTATGFKHLILKFTDKLVIYLNTHIVCEGYGVWRQFYRFGFSESKFEVIGNGNIAGVDLCYFDPDIVDLSVKSNLISSYKLEGCKVFLYVGRLNVDKGIKELVNAFINLNDNSKLLIVGALDTTAPPDDDTLLKIKVNPNIIDFGFLNDIRPIMSISSCLILPSYREGFPNVVLQAGAMELPCIVTDIPGCNEIISHDVNGWLVKPKCIDALESAMNDFLSLDNAKLLSVKKEASENIKTNFERSFYQKKLLNFYNKVLEND,not soluble
5,MGSDKIHHHHHHVKIILRKIRTLVTHPGFRANPIAVLGRCAALLGRVALGRPFVFSLTPAGERLRVDANLRYTTVTTFVMRDHLEPELHYLAHLLAPGDTFIDIGANVGVYSLRAATLVGAAGRVIAVEPGRDALTALRANLALNPGRTITVVAAALSDHIGTATLYHVGNGYDPQAFSLLSDETAKDAETVPLTTLDAVCADLAIDRLDCLKMDAEGVEPMVLAGGRATLERFHPAVILEMNTAILERRGSPTDQAWTFLAGLGYGFHRILGGRPVRLTAPPDDFCNVIATHPANEKIG,not soluble
6,MGSDKIHHHHHHVLADAVAWTARTLPVRPSVPVLAGMLLDADDVDGHQRLTLSSFDYEVSAQVSVDVDIDEPGRILVSGKLLAEIVRNLPPQTVEVSTDGAKVVVSCGSAKFTILTLPVEDYPTLPAMPALTGSVLSDTFAAAVSQVAVAAGRDDTLPMLTGVRIEIEGSTVTLVSTDRYRLAVRELTWTPEDPNVSAVALVPAKTLADTAKSLTGGAQISIALSTAENGGEGMIGFEGGGRRTTTRLLEGEFPKYRKLLPESFNSVAEVQKNEFIEAVKRVSLVAERNTPLRLSFTSDRLVLEAGTGEEAQAVEELSATLEGDDIQIAFNSTFLLDGLNAIESDVAHLQFTTSTKPAIITGKPADDGTASDYRYLIMPVRISN,not soluble
7,MGSDKIHHHHHHVLADSTGHGLSAAMPIMRVASTFRAMVSKGFSLATLIYELNSKVHRENPDDRFVACIVLEVDFYRKKIHIWNGGMPPVYIKNHLETETVSDHYPVKNIIKFKSTNMALGILPSQTFVADIATVDLPVVGHACLFSDGLIEQYTNENKPFGIETLNSLFIQYASELIPYLTENFKKVFDGKPITDDITVCTLDFERLNEWHQQNNICLARSNMDGEFDWEVKLAGPMLLSAEYLNSLNQFLGMFGFATSFCQRVFTVVAELFSNAIDHGVLKLDSRLKSDPDGFELYHSIRDSSSARLTMNDWVKVSLVWCSITNELHICVADSGQGFKGYKNTVVDIPQLSGRGLSLVKTLSKTYELVSPGNITKVIME,not soluble
8,MGSDKIHHHHHHVPEQHICTYEYRLANPNPRPIVGRFQLNFTLDVNGCESGTPVLYLEHVQVHATVRYLKRGDLKLTLFSPSGTRSVLLPPRPQDFNANGFHKWPFLSVQQWGEDPRGTWLLMVESVTTNPAATGTFHDWTLLLYGTADPAQSGDPVYSATPATSQGVLSRVHQLTSQILITIAIHLVVNA,not soluble
9,MGSDKIHHHHHHVSQLSPWQHYQQDLKRDDFSHDLAQEQAVTALQRVYEELIAATKPASGIAALLKAVTGKNKRASVQGLYLWGGVGRGKTYLMDTFFDALPTEDKLRAHFHRFMHQLHHDLGELKGVQDPLLTIAKKMAKQYQVICFDEFFVSDITDAMLLGTLFQALFKEGVVLVATSNIIPDELYKNGLQRARFLPAIALINQHCQILNVDSGIDYRLRTLEQAEIYHHPLDAQADVNLLQYFKQLAPESEVFTHALDIDGRKIAIRQQSQGVLLVDFRALCDGPRSQRDYMEIARLYHTVLLSGLVQMGAQQTGDDIARRFLAVVDEFYERNVKLIISAQVSLEQIYTQGQLDFEFRRCRSRLIEMQSHDYLALEHLP,not soluble
10,MGSDKIHHHHHHVSVDDLIDTTSLELLVAPAPLADFLRQSSAMHRHLCPRQVLGARMGMYAGELLGLTLPQKNKRLYTFVETDGCFADGVSVTTGCWLGRRTMRLMDEGKVAATFVDTQTGQAFRIAPRPNVRDLARQYAPNARSRWHAYLIAYQLMPLTDLLIAQPITLTVDLKAIISRNGLRTTCDHCGEEIINAREVIRDGQTLCRTCGGEGYYTITG,not soluble
11,MGSDKIHHHHHHVTFFERYSRVLFERYQGKVKYWLTFNEINGAQFMPMLSLGMAVREDENMLQSTYQGLHHQFVASSLATKAAREIDPTMQIGCMLIAAPVYPFSSNPVDVQFALEEERMMNYFCGDVHVRGAYPAFAGRFFSENNIELVVEDGDLELLRDYTVDFFSLSYYMSRTEKAEKDGNEAGGNIMSGVKNPYLKASDWGWEINPDGLRIILNKLYDRYQIPLFIVENGLGAYDEIIASNGATLTQTSVSK,not soluble
12,MGSDKIHHHHHHVTHKDMEYALDRVLAGSEKRSRSLVEEEREVVAYHEAGHALVGWMLEHTDALLKYEISIFRQKFRFPLKPLKSRRKVHFLREFLCNFPQRILENFKKIQKSYSKIQIFHQKFTQNIKKLKFPVLGEFLKFPANNSSEFLKNLKNFIKKIFFFEIFGPKLPQKVTIIPRTSAALGFAQYSPRDKHLFSKDELFDRMCMMLGGRCAENLKFGRATSGAQDDLQKVTKSAYAQVKLYGMSSIVGPLSFPNTEGFQIKPYSKKFASTFDQEATLIVAKANEATTDLIKNNMDKLETIAQALLKREVLNYEDVKKL,not soluble
13,MGSDKIHHHHHHVTTQLKETPPSDTSSINLEAEFQASNIKEVLDKLDRELIGLKPVKTRIRETAALLLVDRVRKKLDLTAGAPSLHMSFTGNPGTGKTTVAQRMSEILHRLGYVREGHLVSVTRDDLVGQYIGHTAPKTKEVIKKAMGGVLFIDEAYYLYKPENERDYGAESIEILLQVMENNRDDLVVILAGYKDRMDKFFRSNPGMRSRIAHHIDFPDYSPDELVAIAKLMLAAQNYRLSAEAEKAFGEYIRLRMKMEHFANARSVRNALDRARLRQANRLFEGAKKNLSRTDLITIEAEDIRASRVFVEGAVDLDGDEGASRELSEESV,not soluble
14,MGSDKIHHHHHHVVTPEDSPRYPYGNCLYVEDDIPAVLDLGAGGRAFQEIPCEKVQLALISHSHFDHLHGDSFFPRAGLYAGKEESKTYSDENEYLKFHGYELWAEMMPGIKRVAFSEVKPLPDDVPVKPGFRYIPLAGIFKDMERFQLGKTEITAIHLPGHTTGHYGFWIEKEGILFSGDMDLVVAGPWYSSNSADIGQLVSSVQRIREINPGLIVPSHRRLIFDKIEKRLDQYIGVVFKRQERILDLLKEAHTIDELLEYQMVFHGRRDIYLLFWEKMTLRNHIRFLLWEGMVEEVEKGRYKRC,not soluble
15,MGSDKIHHHHHHYQPEKHAVVKSDRGDGRLLSTYAIVHEMLKDTHPQYAYRSGMSAQEFTQWQDGVRAAMVEIMKFPEIKRQPSPVCVKTEKKEGYILEKWEFYPFPKSVSTFLVLKPEHLKGAVPGVLCIPGSGRTKEGLVGEPGICDKLTEDYNNPKVSMALNMVKEGYVAVAVDNAAAGEASDLECYDKGWNYDYDVVSRFLLELGWSWLGYTSYLDMQVLNWMKAQSYIRKDRIVISGFSLGTEPMMVLGVLDKDIYAFVYNDFLCQTQERAVVMTKPDKENRRPFPNSIRHLIPGYWRYFNFPDVVASLAPRPIIFTEGGLDRDFRLVQSAYAASGKPENAEFHHYPKFADKAVRKDVEHLDEGLDSKTYFEAVNVDPPSHYFKNELVIPWLRKVLK,not soluble
16,MGSIGSMGKPIEGFLVAAIQFPVPIVNSRKDIDHNIESIIRTLHATKAGYPGVELIIFPEYSTQGLNTAKWLSEEFLLDVPGKETELYAKACKEAKVYGVFSIMERNPDSNKNPYNTAIIIDPQGEIILKYRKLFPWNPIEPWYPGDLGMPVCEGPGGSKLAVCICHDGMIPELAREAAYKGCNVYIRISGYSTQVNDQWILTNRSNAWHNLMYTVSVNLAGYDNVFYYFGEGQICNFDGTTLVQGHRNPWEIVTGEIYPKMADNARLSWGLENNIYNLGHRGYVAKPGGEHDAGLTYIKDLAAGKYKLPWEDHMKIKDGSIYGYPTTGGRFGK,soluble
17,MGSLNGGSPEGVESQDGVDHFRAMIVEFMASKKMQLEFPPSLNSHDRLRVHQIAEEHGLRHDSSGEGKRRFITVSKRAGSHHHHHH,soluble
18,MGSSHHHHHHDYDIPTTENLYFQGHMATNLKSTAKLVKPIQYDEVIEVERIFADPAFIEQHRQRILASFKDAKESALYHELTHIVIKDNLFSCAMNAIVGYFEFNIDEAELKNVMEGLKRDVIQGAEDNTVQAIAEKIIKKALVFNHLQKEWKVEITDEVVKNVISLYYEKTNQSVREYLDDKQKFEGVRTALLEERMVLETINHFKFHFNLTGQLPN,soluble
19,MGSSHHHHHHGGTGENLYFQGGSGSSSSSSLPAAASLPATHATPPGALSSSVVSSSAPMCTHLPLPPPPPQPQEQQANKRSLRNDTHAGQMLREQQQMMEQLMSTGLVQAADLLEFGFSAAELRAAGLHLPPPHHRAGEQTKGGLEAAQAERMADAHGEDSRRRGVPRKRAWCDDAAQARPQKNERVAPSPVVSGAAATTLSAAETTREPQTVAKSVATPALLSEETRARSLHAAKLVEQTQSLRRHRGDQDCARWLCYDDTDDEEVSSTASTGTSSGEATAALASMARAAETLPKARCNTALAFSGLDVAVVREIAQRLQDESGHDASVESRRTREYVESRENGNTPYM,not soluble
